Data on 3 molecules can be found in doi:10.1101/2024.09.04.610023 (bioRxiv, 2024).

The labels stand for the following.
T1: Purified human GST-PABPN1 (human, UniProt Q86U42-1 1-306)
T1 sequence (looked up): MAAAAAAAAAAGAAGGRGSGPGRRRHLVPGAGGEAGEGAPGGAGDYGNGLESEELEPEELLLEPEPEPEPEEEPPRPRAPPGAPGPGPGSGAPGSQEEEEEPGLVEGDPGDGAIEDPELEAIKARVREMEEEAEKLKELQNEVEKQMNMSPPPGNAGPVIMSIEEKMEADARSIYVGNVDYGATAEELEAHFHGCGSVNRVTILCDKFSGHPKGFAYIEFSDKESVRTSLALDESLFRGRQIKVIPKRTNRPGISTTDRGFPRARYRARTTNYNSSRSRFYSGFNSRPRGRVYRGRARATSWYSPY

The test has as its target T1, Purified human GST-PABPN1. Kind of test: peptide or protein array.
For the molecule LWRKRDLYQTLYVD (peptide, UniProt Q63053 302-315, looked up) [Arc array peptide 302-315], the binding result is “binds”. In the case of TQIFEDPREFLSHL (peptide, UniProt Q63053 211-224, looked up) [Arc array peptide 211-224] it was “binds”; in that of QPKFKRFLRHPLPK (peptide, UniProt Q63053 330-343, looked up) [Arc array peptide 330-343], “binds”.
